How the values were obtained:
[1] = molecular target: T1, mouse MuSK, endogenous (C2C12 myotubes; neuromuscular synapses of mice) (mouse, UniProt Q61006 22-868); test: cell-based or functional assay
T1 sequence (looked up): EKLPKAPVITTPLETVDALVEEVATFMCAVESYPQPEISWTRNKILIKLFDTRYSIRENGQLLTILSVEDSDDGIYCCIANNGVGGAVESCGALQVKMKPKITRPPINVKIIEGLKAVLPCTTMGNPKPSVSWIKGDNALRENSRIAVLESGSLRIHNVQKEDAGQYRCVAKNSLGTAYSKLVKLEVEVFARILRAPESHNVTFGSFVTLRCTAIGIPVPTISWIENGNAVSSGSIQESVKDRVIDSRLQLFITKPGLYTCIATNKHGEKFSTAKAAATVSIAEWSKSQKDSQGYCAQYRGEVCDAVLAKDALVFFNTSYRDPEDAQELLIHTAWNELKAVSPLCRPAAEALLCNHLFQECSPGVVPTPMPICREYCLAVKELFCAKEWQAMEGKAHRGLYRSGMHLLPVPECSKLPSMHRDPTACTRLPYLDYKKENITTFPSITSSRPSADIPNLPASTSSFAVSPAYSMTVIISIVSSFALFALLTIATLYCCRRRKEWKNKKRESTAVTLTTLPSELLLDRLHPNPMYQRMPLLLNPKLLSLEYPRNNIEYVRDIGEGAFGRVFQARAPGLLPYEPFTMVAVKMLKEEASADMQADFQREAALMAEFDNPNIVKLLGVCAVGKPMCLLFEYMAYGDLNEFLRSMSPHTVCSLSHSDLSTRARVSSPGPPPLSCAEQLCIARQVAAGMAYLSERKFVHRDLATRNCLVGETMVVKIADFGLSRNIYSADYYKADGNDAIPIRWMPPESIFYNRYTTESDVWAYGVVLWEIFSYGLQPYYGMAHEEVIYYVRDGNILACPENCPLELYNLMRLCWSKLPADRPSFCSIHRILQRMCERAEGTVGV

mouse MuSK [2] = molecular target: T2, mouse MuSK (mouse, UniProt Q61006 22-494, limits assumed); test: Biacore, MuSK on chip (200RU), mAb dilution series
T2 construct: Coated on ELISA plates or on the Biacore chip; also called full length mouse MuSK; mouse MuSK (in house produced in HEK293 cells)
T2 sequence (looked up): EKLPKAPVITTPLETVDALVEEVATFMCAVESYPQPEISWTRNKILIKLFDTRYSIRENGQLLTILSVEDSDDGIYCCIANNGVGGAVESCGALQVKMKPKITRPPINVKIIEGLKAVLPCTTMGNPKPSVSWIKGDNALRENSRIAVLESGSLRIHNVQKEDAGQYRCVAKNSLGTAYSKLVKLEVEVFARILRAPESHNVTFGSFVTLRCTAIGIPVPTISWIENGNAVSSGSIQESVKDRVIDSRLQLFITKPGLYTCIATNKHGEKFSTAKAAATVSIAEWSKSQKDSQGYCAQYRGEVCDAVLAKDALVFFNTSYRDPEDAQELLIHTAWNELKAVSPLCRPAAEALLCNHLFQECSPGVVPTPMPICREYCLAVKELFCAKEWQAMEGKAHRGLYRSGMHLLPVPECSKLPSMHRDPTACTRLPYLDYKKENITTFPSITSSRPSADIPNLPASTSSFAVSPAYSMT
Text: (§1) For affinity determination, a CMS chip was coated with either human or mouse MuSK (200RU) and a dilution series of the antibodies (mAbs and Fabs) was applied in order to be able to calculate the affinity.

human MuSK [3] = molecular target: T3, human MuSK (human, UniProt O15146 24-495); test: Biacore, MuSK on chip (200RU), mAb dilution series
T3 construct: Recombinant protein coated on ELISA plates (R&D Systems cat. 10189-MK) or on the Biacore chip; also called human muscle-specific tyrosine protein kinase; full length human MuSK
T3 sequence: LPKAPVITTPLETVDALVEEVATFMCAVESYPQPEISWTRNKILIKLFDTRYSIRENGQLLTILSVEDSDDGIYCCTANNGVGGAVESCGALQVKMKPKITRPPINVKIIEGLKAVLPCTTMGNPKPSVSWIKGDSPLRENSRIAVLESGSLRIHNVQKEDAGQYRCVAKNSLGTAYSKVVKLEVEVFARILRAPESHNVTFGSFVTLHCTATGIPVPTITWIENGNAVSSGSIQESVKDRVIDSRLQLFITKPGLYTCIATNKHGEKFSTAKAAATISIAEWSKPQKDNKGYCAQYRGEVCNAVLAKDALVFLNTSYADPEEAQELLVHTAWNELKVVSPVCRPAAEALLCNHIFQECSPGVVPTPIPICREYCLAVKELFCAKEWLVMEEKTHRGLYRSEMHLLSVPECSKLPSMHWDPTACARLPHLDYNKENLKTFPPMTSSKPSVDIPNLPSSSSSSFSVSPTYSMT
Text: as §1

mouse MuSK [4] = molecular target: T2, mouse MuSK; test: Biacore, mAb
Text: as §1

mouse MuSK [5] = molecular target: T2, mouse MuSK; test: Biacore, MuSK on chip (200RU), Fab dilution series
Text: as §1

human MuSK [6] = molecular target: T3, human MuSK; test: Biacore, MuSK on chip (200RU), Fab dilution series
Text: as §1

mouse MuSK [7] = molecular target: T2, mouse MuSK; test: Biacore, Fab
Text: as §1

human MuSK [8] = molecular target: T3, human MuSK; test: ELISA, plate coated with human MuSK at 0.2 µg/ml, dilution series of mAb, goat anti human Fc-HRP and TMB, OD 620 nm (8 min)
Procedure: (§2) An ELISA plate was coated with human MuSK (R&D Systems, cat. 10189-MK) or mouse MuSK (in house produced in HEK293 cells) at 0.2 μg/ml. After washing and blocking the plate, a dilution series of the anti-MuSK antibodies was applied and allowed to bind for 2 hours at room temperature. […] OD at 620 nm was measured with a 96 well ELISA plate reader.

mouse MuSK [9] = molecular target: T2, mouse MuSK; test: ELISA, plate coated with mouse MuSK at 0.2 µg/ml, dilution series of mAb, goat anti human Fc-HRP and TMB, OD 620 nm (8 min)
Procedure: as §2

B1: 30E1 (antibody, V domains shown)
VH: QVQVQESGPGLVKPSQTLSLTCTVSGGSITARYYSWSWIRQPPGKGLEWMGVIAYDGSTYYSPSLKSRTSISRDTSKNQFSLHLSSVTPDDTAVYYCARGSSRVAAAFDSWGQGTQVTVSS
VL: SYELTQSPSVSVALRRTAKITCGGDNIGSKNTQWYQQKPGQAPVLVIYADSRRPSGIPERFSGSNSGNTATLTISGAQAEDEADYYCHVWDSSTNAWFGGGTHLTVL
notes: human IgG1 with the LALA mutations (L234A, L235A); produced in HEK293 cells; also called 30E1 mAb
- % Phosphorylation Induced in C2C12 Mouse Assay, Assay 1 [1]: 66 % versus agrin
- % Phosphorylation Induced in C2C12 Mouse Assay, Assay 2 [1]: 82 % versus agrin
- % Phosphorylation Induced in C2C12 Mouse Assay, Assay 3 [1]: 50 % versus agrin
- % Phosphorylation Induced in C2C12 Mouse Assay, Average [1]: 66 % versus agrin
- Kd (mouse MuSK [2]): 153 pM
- Kd (human MuSK [3]): 11 pM
- fold difference in affinity, human versus mouse MuSK (mouse MuSK [4]): 10 fold

B2: 30E1 Fab (Fab, V domains shown)
VH: B1 VH
VL: B1 VL
notes: Fab format
- Kd (mouse MuSK [5]): 5390 pM
- Kd (human MuSK [6]): 70 pM
- fold difference in affinity, human versus mouse MuSK (mouse MuSK [7]): ≥ 1000 fold

B3: 30A11 Fab (Fab, V domains shown)
VH: B1 VH
VL: SYELTQSPSVTVALRQTAKITCGGDNIASKNVQWYQQKPGQAPSLVIWADSRRPSGIPVRFSGSNFGNTATLTISGAQAEDEADYYCQVWDSSTNVAVFGGGTHLTVL
notes: Fab format
- Kd (mouse MuSK [5]): 2420 pM
- Kd (human MuSK [6]): 8 pM
- fold difference in affinity, human versus mouse MuSK (mouse MuSK [7]): ≥ 1000 fold

B4: 30A11 (antibody, V domains shown)
VH: B1 VH
VL: B3 VL
notes: human IgG1 with the LALA mutations (L234A, L235A); produced in HEK293 cells; also called 30A11 mAb
- % Phosphorylation Induced in C2C12 Mouse Assay, Assay 1 [1]: 73 % versus agrin
- % Phosphorylation Induced in C2C12 Mouse Assay, Assay 2 [1]: 89 % versus agrin
- % Phosphorylation Induced in C2C12 Mouse Assay, Assay 3 [1]: 74 % versus agrin
- % Phosphorylation Induced in C2C12 Mouse Assay, Average [1]: 79 % versus agrin
- Kd (mouse MuSK [2]): 110 pM
- Kd (human MuSK [3]): 1 pM
- fold difference in affinity, human versus mouse MuSK (mouse MuSK [4]): 100 fold

B5: 16F11 (antibody, V domains shown)
VH: EVQLVESGGGLVQPGGSLSLSCVASGFTFSLYYMNWVRQAPGKGLEWLSVIDTHSIAYYADSVKGRFTISRDNVKNTLYLQLNNLKPEDTALYYCVLGRTALVRWGQGTQVTVSS
VL: DIVMTQSPSSVTASVGEKVTINCKSSQSVVFGSNQKSYLNWYQQRPGQSPRLLIYYASTQESGIPDRFSGSGSTTDFTLTISSVQPEDAAVYYCQQAYSAPTFGSGTRLEIK
notes: human IgG1 with the LALA mutations (L234A, L235A); produced in HEK293 cells
- EC50 (read off the curve) (human MuSK [8]): ~0.02 µg/mL
- EC50 (read off the curve) (mouse MuSK [9]): ~0.02 µg/mL
